These results are taken from patent publication US9012420B2, “Aptamer for chymase, and use thereof” (Ribomic Inc., priority 2009, dated 2015).

Oligonucleotides are written 5' to 3', each unit as a sugar letter and its base; * is a phosphorothioate linkage, no mark a phosphodiester; rarer units and linkages stand in square brackets, end groups in braces. Plain capitals give the bases only. r = 2'-OH (RNA); f = 2'-fluoro

In data set [1] the target is T1, chymase (recombinant, manufactured by SIGMA) (Homo sapiens, UniProt P23946).
T1 construct: purchased SIGMA; host or cells: yeast
T1 sequence (P23946 22-247): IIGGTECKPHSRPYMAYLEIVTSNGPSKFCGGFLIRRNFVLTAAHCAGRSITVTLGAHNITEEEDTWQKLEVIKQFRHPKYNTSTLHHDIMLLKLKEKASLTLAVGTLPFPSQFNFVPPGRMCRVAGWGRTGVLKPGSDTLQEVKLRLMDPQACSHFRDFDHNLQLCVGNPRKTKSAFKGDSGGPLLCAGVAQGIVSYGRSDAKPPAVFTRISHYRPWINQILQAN
The data set can be described thus: Surface plasmon resonance (Biacore T100), chymase immobilized on CM5 chip, nucleic acid injected as analyte. The format is binding. Also on record: key to Binding activity as determined using Biacore: ++: a sequence that binds to chymase significantly more strongly than the negative control 40N; +: a sequence that binds to chymase equivalently compared with the negative control 40N; key to binding activity using Biacore: ++: significant binding to chymase than SEQ ID NO: 58 which is a negative control; +: similar binding level as SEQ ID NO: 58 which is a negative control. Particulars: for Binding activity as determined using Biacore: Table 4, about 4000 RU chymase immobilized, nucleic acid 0.3 μM, solution C, compared with 40N. As for the experimental part:
In another method, chymase is first immobilized onto a sensor chip, the amount immobilized being about 4000 RU. 20 μL of an aptamer solution for analyte, prepared at 0.01 μg/μL, is injected, and the binding of the aptamer to chymase is detected. An RNA containing a random nucleotide sequence of 30 or 40 nucleotides is used as a negative control.
Whether these nucleic acids bind to chymase was determined by the surface plasmon resonance method. Measurements were taken using Biacore T100 (manufactured by GE Healthcare) as described below. About 4000 RU of chymase (recombinant, manufactured by SIGMA) was immobilized on the sensor chip surface of a CM5 chip, using an amine coupling kit. 20 μL of each nucleic acid, prepared at 0.3 μM, as an analyte was injected at a flow rate of 20 μL/min. Solution C was used as a running buffer. The method of evaluation used was the same as Example 1.
All nucleic acids of SEQ ID NO: 58-68 were prepared by chemical synthesis. Whether these nucleic acids are bound to chymase was assessed by surface plasmon resonance method in the same manner as in Example 4. The inhibitory activity on chymase was measured in the same manner as in Example 3.
All nucleic acids of SEQ ID NOs: 73-79, 56(8), 80, 56(10), 81, 56(13)-56(14), 83-87 were prepared by chemical synthesis. Whether these nucleic acids are bound to chymase was assessed by surface plasmon resonance method in the same manner as in Example 4.
All nucleic acids of SEQ ID NO: 88-120, 121, 69, 122, 123, 70-72, 124-131 were prepared by chemical synthesis. Whether these nucleic acids are bound to chymase was assessed by surface plasmon resonance method in the same manner as in Example 4.

The target in data set [2] is T1, chymase (recombinant, manufactured by SIGMA). Nature of the data set: Chymase inhibitory activity using synthetic substrate Suc-Ala-Ala-Pro-Phe-MCA. The format is biochemical. On the procedure:
A first method employs a synthetic substrate. A useful chymase substrate is Suc-Ala-Ala-Pro-Phe-MCA (4-methylcoumaryl-7-amide group) (manufactured by Peptide Institute, Inc.), which contains the 4-amino acid peptide “Ala-Ala-Pro-Phe”, a standard substrate for chymotrypsin-like proteases.
The assay is performed using a 96-well plate (F16 Black Maxisorp Fluoronunc, manufactured by Nunc), with a reaction mixture volume of 100 μL, in a buffer solution (solution C; see Example 2 below). First, each nucleic acid is prepared in solution C to obtain 50 μL solutions. After 10 μL of the 1 mM substrate prepared in solution C is added, the plate is set to the microplate reader SpectraMax190 (manufactured by Molecular Devices Corporation), and incubated at 37° C. for 5 minutes. Separately, 0.05 μg of chymase (recombinant, manufactured by SIGMA) is diluted in solution C, and 40 μL of this dilution is incubated at 37° C. for 5 minutes. The chymase solution is added to the mixture of the nucleic acid and substrate to initiate an enzyme reaction. The plate containing the reaction mixture is set to the microplate reader SpectraMax190 (manufactured by Molecular Devices Corporation), and examined for time-dependent changes in the fluorescence intensity at 37° C. for 5 minutes (excitation wavelength 380 nm, detection wavelength 460 nm). A linear approximation of the increase in the fluorescence of the AMC (7-amino-4-methylcoumarine) released from the substrate by chymase activity is generated, and its slope is taken as the initial reaction velocity. For control, samples are treated and analyzed in the same manner in two cases: use of a nucleic acid pool containing a random sequence of 30 or 40 nucleotides (negative control), and use of chymostatin, a known chymotrypsin-like serine protease inhibitor (positive control). Taking the initial reaction velocity without the nucleic acid and inhibitor as a 100% enzyme activity, the inhibitory rate for each test substance is calculated, and the inhibitor concentration required to cause a 50% inhibition of the enzyme activity (IC50) is determined.
Whether the nucleic acids shown by SEQ ID NO: 4-20, 22-34, and 38-48 inhibit the enzyme activity of chymase was determined as described below. The chymase substrate used was Suc-Ala-Ala-Pro-Phe-MCA (manufactured by Peptide Institute, Inc.), which contains the 4-amino-acid peptide Ala-Ala-Pro-Phe, a standard substrate for chymotrypsin-like proteases. Here, Suc is a protecting succinyl group, and MCA is a 4-methylcoumaryl-7-amide group; upon cleavage of the C-terminal side of phenylalanine, AMC (7-amino-4-methylcoumarine) is released. By detecting the fluorescence of this AMC, the enzyme activity of chymase can be determined. The assay was performed using a 96-well plate (F16 Black Maxisorp Fluoronunc, manufactured by Nunc), with a reaction mixture volume of 100 μL, in solution C as a buffer solution. First, each nucleic acid was serially diluted to 0.0027-2 μM concentrations in solution C to obtain 50 μL solutions. After 10 μL of the 1 mM substrate prepared in solution C was added thereto, the plate was set to the microplate reader SpectraMax190 (manufactured by Molecular Devices Corporation), and incubated at 37° C. for 5 minutes. Separately, 0.05 μg (or 0.005 μg) of chymase (recombinant, manufactured by SIGMA) was diluted in solution C to obtain a 40 μL chymase solution, and incubated at 37° C. for 5 minutes. The chymase solution was added to the mixture of the nucleic acid and substrate to initiate an enzyme reaction. The final chymase concentration in the reaction mixture was 16.7 nM (or 1.67 nM), the final substrate concentration being 100 μM. The plate containing the reaction mixture was set to the microplate reader SpectraMax190 (manufactured by Molecular Devices Corporation), and examined for time-dependent changes in the fluorescence intensity at 37° C. for 5 minutes (or 30 minutes) (excitation wavelength 380 nm, detection wavelength 460 nm). […]

A further data set has as its target T2, chymase (Homo sapiens, UniProt P23946).
T2 sequence (P23946 22-247): T1 sequence (P23946 22-247)
Nature of the data set: Surface plasmon resonance (Biacore T100), aptamer immobilized on SA chip, chymase injected as analyte. The class given is binding. Also on record: key: ++: a sequence that binds to chymase significantly more strongly than the negative control 40N; +: a sequence that binds to chymase equivalently compared with the negative control 40N. The note with it: Table 1; about 1000 RU nucleic acid immobilized, chymase 0.2 μM analyte, running buffer solution A; compared with 40N. As for the experimental part: Binding strength is measured using Biacore T100 (manufactured by GE Healthcare). In a method of measurement, the aptamer is first immobilized onto a sensor chip, the amount immobilized being about 1000 RU. 20 μL of a chymase solution for analyte, prepared at 0.2 μM, is injected, and the binding of chymase to the aptamer is detected. An RNA comprising a random nucleotide sequence of 30 or 40 nucleotides is used as a negative control.
The binding activities against chymase of the nucleic acids shown by SEQ ID NO: 4-20 and 22-34 were determined by the surface plasmon resonance method using Biacore T100 (manufactured by GE Healthcare). The sensor chip used was the SA chip, which had streptavidin immobilized thereon. Bound thereto was about 1500 RU of a 16-nucleotide Poly dT with biotin bound to the 5′ end thereof. […] 20 μL of chymase for analyte, prepared at 0.2 μM, was injected. Solution A was used as a running buffer.
The binding activities against chymase of the nucleic acids shown by SEQ ID NO: 38-48 were evaluated by the surface plasmon resonance method. In the evaluations for SEQ ID NO: 38-48, measurements were taken in the same manner as Example 1. Solution C was used as a running buffer.
On the technique in general: Surface plasmon resonance follows binding to a sensor surface in real time, without labels.

[3] abbreviates: Table 4, same manner as Example 3, mean value for 2 to 3 measurements.
The mark [4] stands for this setting: Table 3, substrate 100 μM, solution C, 37° C., mean value for 2 to 3 measurements.

On to “49 (GGUUCUACAGAUAGAGAUAAAGUAGAACC; 2'-fluoro at CU, RNA at AG, backbone not given here) [compound 49]”, for which the “Binding activity as determined using Biacore” value (shortened to “Binding activity as determined”) in data set [1] is “++”. Besides, the concentration for half-maximal inhibition (IC50) in data set [2] (setting [3]) is 117 ± 66 nM.

For “50 (GGCAUUCUACAGAUAGAGAUAAAGUAGAAUUUAAC; 2'-fluoro at CU, RNA at AG, backbone not given here) [compound 50]”, the “Binding activity as determined” value in data set [1] is recorded as “++”. For the same molecule, in data set [2] (setting [3]), the 50% inhibitory concentration (IC50) amounted to 138 ± 93 nM.

Regarding “51 (CGUUACAUAAUGUAUAUACCAGGGUAACUAAACAUAGAAGAGCGG; 2'-fluoro at CU, RNA at AG, backbone not given here) [compound 51]”, the “Binding activity as determined” value in data set [1] is given as “++”. For the same molecule, in data set [2] (setting [3]), the IC50 was 24 ± 9 nM.

On to “52 (CCGUAUAUACCAGGGUAACUAAACGG; 2'-fluoro at CU, RNA at AG, backbone not given here) [compound 52]”, for which, in data set [1], the “Binding activity as determined” value is listed as “+”. Also, in data set [2] (setting [3]), the half-maximal inhibitory concentration (IC50) is over 1000 nM.

Consider “57 (GCAUUUGAGAUAGAUUUAAACAAACGC; 2'-fluoro at CU, RNA at AG, backbone not given here) [compound 57]”, for which the “Binding activity as determined” value in data set [1] is recorded as “++”. In addition, the IC50 in data set [2] (setting [3]) was 99 ± 13 nM.

As to “59 (GGGUUAGAUAGAGAUAAAAACCC; 2'-fluoro at CU, RNA at AG, backbone not given here) [compound 59]”, the “binding activity using Biacore” value in data set [1] (Table 5, same manner as Example 4, compared with SEQ ID NO: 58) is “++”. In data set [2] (Table 5, same manner as Example 3, mean value of two measurements), the IC50 came out at 38 ± 9 nM.

B1: 33 (nucleic acid)
chain: rGrGrGrAfCrGrGfUrArGrGrArAfUfUfCfCfUrGfUfCfUfUfUfUfCfCfCrAfCrGfCrArAfCrArArAfUfUrAfCrArGrArGfCfUfUfUrGfCrArArArAfCrAfUrArGrArArGrArGfCrGrGfCfCrGfC
modifications: aptamer
B1: the IC50 in data set [2] (setting [4]) came to 145 ± 88 nM. Further, the “Binding activity as determined” value in the data set with chymase is listed as “+”.

B2: 34 (nucleic acid)
chain: rGrGrGrAfCrGrGfUrArGrGrArAfUfUfCfUrGfCfCrGfCrArAfCfCfCrArAfUrGrArArArAfCrGrArArGrAfUrArGrArGrAfUrArArAfUfCrGrArAfCrAfUrArGrArArGrArGfCrGrGfCfCrGfC
modifications: aptamer
In the case of B2, in data set [2] (setting [4]), the 50% inhibitory concentration (IC50) worked out at 137 ± 9 nM. In addition, the “Binding activity as determined” value with chymase is recorded as “+”.

B3: 6 (nucleic acid)
chain: rGrGrGrAfCrGrGfUrArGrGrArAfUfUfCfUrAfCrGrGfUfCfUrGfUrGfUrGrArArAfUfUrGrArArAfCrAfCrAfCrArArArGrArAfCrArAfUrArGrAfCrAfUrArGrArArGrArGfCrGrGfCfCrGfC
modifications: aptamer
B3: the concentration for half-maximal inhibition (IC50) in data set [2] (setting [4]) worked out at 456 ± 261 nM. In addition, the “Binding activity as determined” value with chymase is given as “++”.

B4: 31 (nucleic acid)
chain: rGrGrGrAfCrGrGfUrArGrGrArAfUfUfCrGfUfCfCfCfUfCrAfUrGfUfCfUrAfUfUfUfUrGfCrArGrAfUrArGrAfCfUfUrArArArGfCrArArAfCrAfUrArGrArArGrArGfCrGrGfCfCrGfC
As for B4, the IC50 in data set [2] (setting [4]) is 155 ± 39 nM. Further, in the data set with chymase, the “Binding activity as determined” value is reported as “+”.

B5: 32 (nucleic acid)
chain: rGrGrGrAfCrGrGfUrArGrGrArAfUfUfCrGfUfCfCfUfCrAfUrGfUfCfUrAfUfUfUfUrGfCrArGrAfUrArGrAfCfUfUrArArArGfCrArArAfCrAfUrArGrArArGrArGfCrGrGfCfCrGfC
With B5, in data set [2] (setting [4]), the IC50 was determined as 235 ± 55 nM. In the data set with chymase, the “Binding activity as determined” value was “+”.

B6: 5 (nucleic acid)
chain: rGrGrGrAfCrGrGfUrArGrGrArAfUfUfCfCfCrAfCfUfUrGfUfCfUfUfUrGrArGrGfCrArArGrArArAfUfUrGfUrAfUfUfCfCrGrArArGrArArGfCrAfUrArGrArArGrArGfCrGrGfCfCrGfC
modifications: aptamer
With B6, the IC50 in data set [2] (setting [4]) worked out at 80 ± 39 nM. The “Binding activity as determined” value with chymase is “++”.

B7: 7 (nucleic acid)
chain: rGrGrGrAfCrGrGfUrArGrGrArAfUfUfCrAfCfCfUfUfUfCfCrArAfUfUrGfUrGrArArArGrArArAfCrAfCrArArArArArGrArArAfUrGrAfCrAfUfCrAfUrArGrArArGrArGfCrGrGfCfCrGfC
modifications: aptamer
Consider B7, for which the 50% inhibitory concentration (IC50) in data set [2] (setting [4]) is over 500 nM. In the data set with chymase, the “Binding activity as determined” value is reported as “++”.

As a reminder, the IC50 is the concentration needed to halve the response being measured.
